Experimental data reported in publication PMC8298264, “Function of cofactor Akirin2 in the regulation of gene expression in model human neutrophil-like HL60 cells” (Bioscience Reports, 2021).

B1: sp¦Q8N335¦GPD1L_HUMAN (protein, UniProt Q8N335 1-351, looked up)
Glycerol-3-phosphate …: MAAAPLKVCIVGSGNWGSAVAKIIGNNVKKLQKFASTVKMWVFEETVNGRKLTDIINNDHENVKYLPGHKLPENVVAMSNLSEAVQDADLLVFVIPHQFIHRICDEITGRVPKKALGITLIKGIDEGPEGLKLISDIIREKMGIDISVLMGANIANEVAAEKFCETTIGSKVMENGLLFKELLQTPNFRITVVDDADTVELCGALKNIVAVGAGFCDGLRCGDNTKAAVIRLGLMEMIAFARIFCKGQVSTATFLESCGVADLITTCYGGRNRRVAEAFARTGKTIEELEKEMLNGQKLQGPQTSAEVYRILKQKGLLDKFPLFTAVYQICYESRPVQEMLSCLQSHPEHT
B2: sp¦Q9UIG0¦BAZ1B_HUMAN (protein, UniProt Q9UIG0 1-1483, looked up)
Tyrosine-protein kinase BAZ1B: MAPLLGRKPFPLVKPLPGEEPLFTIPHTQEAFRTREEYEARLERYSERIWTCKSTGSSQLTHKEAWEEEQEVAELLKEEFPAWYEKLVLEMVHHNTASLEKLVDTAWLEIMTKYAVGEECDFEVGKEKMLKVKIVKIHPLEKVDEEATEKKSDGACDSPSSDKENSSQIAQDHQKKETVVKEDEGRRESINDRARRSPRKLPTSLKKGERKWAPPKFLPHKYDVKLQNEDKIISNVPADSLIRTERPPNKEIVRYFIRHNALRAGTGENAPWVVEDELVKKYSLPSKFSDFLLDPYKYMTLNPSTKRKNTGSPDRKPSKKSKTDNSSLSSPLNPKLWCHVHLKKSLSGSPLKVKNSKNSKSPEEHLEEMMKMMSPNKLHTNFHIPKKGPPAKKPGKHSDKPLKAKGRSKGILNGQKSTGNSKSPKKGLKTPKTKMKQMTLLDMAKGTQKMTRAPRNSGGTPRTSSKPHKHLPPAALHLIAYYKENKDREDKRSALSCVISKTARLLSSEDRARLPEELRSLVQKRYELLEHKKRWASMSEEQRKEYLKKKREELKKKLKEKAKERREKEMLERLEKQKRYEDQELTGKNLPAFRLVDTPEGLPNTLFGDVAMVVEFLSCYSGLLLPDAQYPITAVSLMEALSADKGGFLYLNRVLVILLQTLLQDEIAEDYGELGMKLSEIPLTLHSVSELVRLCLRRSDVQEESEGSDTDDNKDSAAFEDNEVQDEFLEKLETSEFFELTSEEKLQILTALCHRILMTYSVQDHMETRQQMSAELWKERLAVLKEENDKKRAEKQKRKEMEAKNKENGKVENGLGKTDRKKEIVKFEPQVDTEAEDMISAVKSRRLLAIQAKKEREIQEREMKVKLERQAEEERIRKHKAAAEKAFQEGIAKAKLVMRRTPIGTDRNHNRYWLFSDEVPGLFIEKGWVHDSIDYRFNHHCKDHTVSGDEDYCPRSKKANLGKNASMNTQHGTATEVAVETTTPKQGQNLWFLCDSQKELDELLNCLHPQGIRESQLKERLEKRYQDIIHSIHLARKPNLGLKSCDGNQELLNFLRSDLIEVATRLQKGGLGYVEETSEFEARVISLEKLKDFGECVIALQASVIKKFLQGFMAPKQKRRKLQSEDSAKTEEVDEEKKMVEEAKVASALEKWKTAIREAQTFSRMHVLLGMLDACIKWDMSAENARCKVCRKKGEDDKLILCDECNKAFHLFCLRPALYEVPDGEWQCPACQPATARRNSRGRNYTEESASEDSEDDESDEEEEEEEEEEEEEDYEVAGLRLRPRKTIRGKHSVIPPAARSGRRPGKKPHSTRRSQPKAPPVDDAEVDELVLQTKRSSRRQSLELQKCEEILHKIVKYRFSWPFREPVTRDEAEDYYDVITHPMDFQTVQNKCSCGSYRSVQEFLTDMKQVFTNAEVYNCRGSHVLSCMVKTEQCLVALLHKHLPGHPYVRRKRKKFPDRLAEDEGDSEPEAVGQSRGRRQKK
B3: sp¦P62995¦TRA2B_HUMAN (protein, UniProt P62995 2-288, looked up)
Transformer-2 protein homolog …: SDSGEQNYGERESRSASRSGSAHGSGKSARHTPARSRSKEDSRRSRSKSRSRSESRSRSRRSSRRHYTRSRSRSRSHRRSRSRSYSRDYRRRHSHSHSPMSTRRRHVGNRANPDPNCCLGVFGLSLYTTERDLREVFSKYGPIADVSIVYDQQSRRSRGFAFVYFENVDDAKEAKERANGMELDGRRIRVDFSITKRPHTPTPGIYMGRPTYGSSRRRDYYDRGYDRGYDDRDYYSRSYRGGGGGGGGWRAAQDRDQIYRRRSPSPYYSRGGYRSRSRSRSYSPRRY
B4: sp¦P40926¦MDHM_HUMAN (protein, UniProt P40926 25-338, looked up)
Malate dehydrogenase, …: AKVAVLGASGGIGQPLSLLLKNSPLVSRLTLYDIAHTPGVAADLSHIETKAAVKGYLGPEQLPDCLKGCDVVVIPAGVPRKPGMTRDDLFNTNATIVATLTAACAQHCPEAMICVIANPVNSTIPITAEVFKKHGVYNPNKIFGVTTLDIVRANTFVAELKGLDPARVNVPVIGGHAGKTIIPLISQCTPKVDFPQDQLTALTGRIQEAGTEVVKAKAGAGSATLSMAYAGARFVFSLVDAMNGKEGVVECSFVKSQETECTYFSTPLLLGKKGIEKNLGIGKVSSFEEKMISDAIPELKASIKKGEDFVKTLK
B5: sp¦P41250¦GARS_HUMAN (protein, UniProt P41250 37-739, looked up)
Glycine--tRNA ligase: SAASCPPISLPAAASRSSMDGAGAEEVLAPLRLAVRQQGDLVRKLKEDKAPQVDVDKAVAELKARKRVLEAKELALQPKDDIVDRAKMEDTLKRRFFYDQAFAIYGGVSGLYDFGPVGCALKNNIIQTWRQHFIQEEQILEIDCTMLTPEPVLKTSGHVDKFADFMVKDVKNGECFRADHLLKAHLQKLMSDKKCSVEKKSEMESVLAQLDNYGQQELADLFVNYNVKSPITGNDLSPPVSFNLMFKTFIGPGGNMPGYLRPETAQGIFLNFKRLLEFNQGKLPFAAAQIGNSFRNEISPRSGLIRVREFTMAEIEHFVDPSEKDHPKFQNVADLHLYLYSAKAQVSGQSARKMRLGDAVEQGVINNTVLGYFIGRIYLYLTKVGISPDKLRFRQHMENEMAHYACDCWDAESKTSYGWIEIVGCADRSCYDLSCHARATKVPLVAEKPLKEPKTVNVVQFEPSKGAIGKAYKKDAKLVMEYLAICDECYITEMEMLLNEKGEFTIETEGKTFQLTKDMINVKRFQKTLYVEEVVPNVIEPSFGLGRIMYTVFEHTFHVREGDEQRTFFSFPAVVAPFKCSVLPLSQNQEFMPFVKELSEALTRHGVSHKVDDSSGSIGRRYARTDEIGVAFGVTIDFDTVNKTPHTATLRDRDSMRQIRAEISELPSIVQDLANGNITWADVEARYPLFEGQETGKKETIEE
B6: sp¦O60306¦AQR_HUMAN (protein, UniProt O60306 1-1485, looked up)
RNA helicase aquarius: MAAPAQPKKIVAPTVSQINAEFVTQLACKYWAPHIKKKSPFDIKVIEDIYEKEIVKSRFAIRKIMLLEFSQYLENYLWMNYSPEVSSKAYLMSICCMVNEKFRENVPAWEIFKKKPDHFPFFFKHILKAALAETDGEFSLHEQTVLLLFLDHCFNSLEVDLIRSQVQQLISLPMWMGLQLARLELELKKTPKLRKFWNLIKKNDEKMDPEAREQAYQERRFLSQLIQKFISVLKSVPLSEPVTMDKVHYCERFIELMIDLEALLPTRRWFNTILDDSHLLVHCYLSNLVRREEDGHLFSQLLDMLKFYTGFEINDQTGNALTENEMTTIHYDRITSLQRAAFAHFPELYDFALSNVAEVDTRESLVKFFGPLSSNTLHQVASYLCLLPTLPKNEDTTFDKEFLLELLVSRHERRISQIQQLNQMPLYPTEKIIWDENIVPTEYYSGEGCLALPKLNLQFLTLHDYLLRNFNLFRLESTYEIRQDIEDSVSRMKPWQSEYGGVVFGGWARMAQPIVAFTVVEVAKPNIGENWPTRVRADVTINLNVRDHIKDEWEGLRKHDVCFLITVRPTKPYGTKFDRRRPFIEQVGLVYVRGCEIQGMLDDKGRVIEDGPEPRPNLRGESRTFRVFLDPNQYQQDMTNTIQNGAEDVYETFNIIMRRKPKENNFKAVLETIRNLMNTDCVVPDWLHDIILGYGDPSSAHYSKMPNQIATLDFNDTFLSIEHLKASFPGHNVKVTVEDPALQIPPFRITFPVRSGKGKKRKDADVEDEDTEEAKTLIVEPHVIPNRGPYPYNQPKRNTIQFTHTQIEAIRAGMQPGLTMVVGPPGTGKTDVAVQIISNIYHNFPEQRTLIVTHSNQALNQLFEKIMALDIDERHLLRLGHGEEELETEKDFSRYGRVNYVLARRIELLEEVKRLQKSLGVPGDASYTCETAGYFFLYQVMSRWEEYISKVKNKGSTLPDVTEVSTFFPFHEYFANAPQPIFKGRSYEEDMEIAEGCFRHIKKIFTQLEEFRASELLRSGLDRSKYLLVKEAKIIAMTCTHAALKRHDLVKLGFKYDNILMEEAAQILEIETFIPLLLQNPQDGFSRLKRWIMIGDHHQLPPVIKNMAFQKYSNMEQSLFTRFVRVGVPTVDLDAQGRARASLCNLYNWRYKNLGNLPHVQLLPEFSTANAGLLYDFQLINVEDFQGVGESEPNPYFYQNLGEAEYVVALFMYMCLLGYPADKISILTTYNGQKHLIRDIINRRCGNNPLIGRPNKVTTVDRFQGQQNDYILLSLVRTRAVGHLRDVRRLVVAMSRARLGLYIFARVSLFQNCFELTPAFSQLTARPLHLHIIPTEPFPTTRKNGERPSHEVQIIKNMPQMANFVYNMYMHLIQTTHHYHQTLLQLPPAMVEEGEEVQNQETELETEEEAMTVQADIIPSPTDTSCRQETPAFQTDTTPSETGATSTPEAIPALSETTPTVVGAVSAPAEANTPQDATSAPEETK
B7: sp¦P43034¦LIS1_HUMAN (protein, UniProt P43034 1-410, looked up)
Platelet-activating factor …: MVLSQRQRDELNRAIADYLRSNGYEEAYSVFKKEAELDVNEELDKKYAGLLEKKWTSVIRLQKKVMELESKLNEAKEEFTSGGPLGQKRDPKEWIPRPPEKYALSGHRSPVTRVIFHPVFSVMVSASEDATIKVWDYETGDFERTLKGHTDSVQDISFDHSGKLLASCSADMTIKLWDFQGFECIRTMHGHDHNVSSVAIMPNGDHIVSASRDKTIKMWEVQTGYCVKTFTGHREWVRMVRPNQDGTLIASCSNDQTVRVWVVATKECKAELREHEHVVECISWAPESSYSSISEATGSETKKSGKPGPFLLSGSRDKTIKMWDVSTGMCLMTLVGHDNWVRGVLFHSGGKFILSCADDKTLRVWDYKNKRCMKTLNAHEHFVTSLDFHKTAPYVVTGSVDQTVKVWECR
B8: sp¦Q15654¦TRIP6_HUMAN (protein, UniProt Q15654 1-476, looked up)
Thyroid receptor-interacting …: MSGPTWLPPKQPEPARAPQGRAIPRGTPGPPPAHGAALQPHPRVNFCPLPSEQCYQAPGGPEDRGPAWVGSHGVLQHTQGLPADRGGLRPGSLDAEIDLLSSTLAELNGGRGHASRRPDRQAYEPPPPPAYRTGSLKPNPASPLPASPYGGPTPASYTTASTPAGPAFPVQVKVAQPVRGCGPPRRGASQASGPLPGPHFPLPGRGEVWGPGYRSQREPGPGAKEEAAGVSGPAGRGRGGEHGPQVPLSQPPEDELDRLTKKLVHDMNHPPSGEYFGQCGGCGEDVVGDGAGVVALDRVFHVGCFVCSTCRAQLRGQHFYAVERRAYCEGCYVATLEKCATCSQPILDRILRAMGKAYHPGCFTCVVCHRGLDGIPFTVDATSQIHCIEDFHRKFAPRCSVCGGAIMPEPGQEETVRIVALDRSFHIGCYKCEECGLLLSSEGECQGCYPLDGHILCKACSAWRIQELSATVTTDC

tested on: human HL60 cells; assay: SWATH-MS proteomics, differential protein representation, akirin2 KO vs WT HL60 cells; assay type: cell-based; settings: akirin2 KO vs WT HL60 cells; sheet "Under-represented in KO"
Summary of the method: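 WT and akirin2 KO HL60 lysates (150 µg, n=3 biological replicates) were FASP trypsin-digested and desalted. A spectral library was built by IDA from 3 µg digests, then 5 µg per sample went to variable-window SWATH DIA over a 120-min 5–30% acetonitrile gradient. Identifications were accepted at 1% global FDR, with total-area-sum normalization.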

Molecule | Fold Change | Log (Fold Change)
B1 | 0.6832 | -0.1655
B2 | 0.6821 | -0.1661
B3 | 0.3066 | -0.5134
B4 | 0.6852 | -0.1642
B5 | 0.6839 | -0.165
B6 | 0.6822 | -0.1661
B7 | 0.6845 | -0.1646
B8 | 0.6873 | -0.1629
